Target: FBXW7 (UniProt Q8VBV4)
Assay: anti-FLAG co-IP, MCL1-HA blot
Conditions: reference: WT MCL1-HA; sites S140

binding against the reference: weaker
Substance: MCL1 (from UniProt P97287) MCL1-HA S140A

— publication PMC5294778
